Assay results: patent US20130288266A1 (ROCHE DIAGNOSTICS OPERATIONS, published 2013)
One block for each binder: values may come before it.

What was measured:
[1] = target: T1, wild-type HER3 in unstimulated Hek293 cells (transfected with HER2 and HER3) (UniProt P21860 20-1342, limits assumed); test: IHC (Ventana BenchMark XT), ssFab on 4xC18 linker, FFPE Hek293 cells
T1 construct: whole, on cells; also called HER3 (unstimulated cells)
From the text: (§1) Hek293 cells had been transiently transfected with both HER2 and HER3 expression vectors. In one case an HER3 expression vector was used that encodes an mutated version of HER3, in which 14 tyrosines of the intracellular domain that serve as phosphorylation sites are replaced with phenylalanines (Y975F, Y1054F, Y1132F, Y1159F, Y1197F, Y1199F, Y1222F, Y1224F, Y1260F, Y1262F, Y1276F, Y1289F, Y1307F, Y1328F). Cells were fixed with formalin and embedded in paraffin according to standard protocols.
(§2) 1 μg/ml per ssFab fragment of only ssFab 7.2.32 or only ssFab 4.1.15, respectively, and an equimolar amount of 4×C18 linker, as well as a mixture of both ssFab′ fragments of ssFab 7.2.32 and ssFab 4.1.15 (both at 1 μg/ml) and an equimolar amount of 4×C18 linker, respectively, were used for detection. A biotin label within the linker molecule served as a detection tag for the streptavidin-based Ventana iVIEW DAB detection kit.

[2] = target: T2, mutated HER3(Y>F) in NRG1-beta1-stimulated Hek293 cells, 14 tyrosines of the intracellular domain replaced … (UniProt P21860 20-1342, limits assumed); test: as above
T2 construct: whole, on cells; also called mutated version of HER3 lacking the Tyr1289 phosphorylation site
From the text: as §1, §2

[3] = target: T2, mutated HER3(Y>F) in …; test: IHC (Ventana BenchMark XT), FFPE Hek293 cells
Method: The IHC experiments were performed on the BenchMark XT platform from Ventana. For the assay an anti-pHER3 dual binder was used that consisted of ssFab 7.2.32 (binding a non-phospho epitope of the intracellular domain of HER3), ssFab 4.1.15 (binding the pTyr1289 phospho-epitope of the intracellular domain of HER3) and a flexible linker. […] A biotin label within the linker molecule served as a detection tag for the streptavidin-based Ventana iVIEW DAB detection kit.
In order to test the specificity of the anti-pHER3 dual binder molecule an elaborate test system based on formalin-fixed paraffin-embedded (FFPE) Hek293 cells was used. Hek293 cells had been transiently transfected with both HER2 and HER3 expression vectors. In one case an HER3 expression vector was used that encodes an mutated version of HER3, in which 14 tyrosines of the intracellular domain that serve as phosphorylation sites are replaced with phenylalanines (Y975F, Y1054F, Y1132F, Y1159F, Y1197F, Y1199F, Y1222F, Y1224F, Y1260F, Y1262F, Y1276F, Y1289F, Y1307F, Y1328F). Cells were fixed with formalin and embedded in paraffin according to standard protocols. […]

T2 sequence (P21860 other isoform, or with tags, fused parts or gaps limits assumed, change not shown): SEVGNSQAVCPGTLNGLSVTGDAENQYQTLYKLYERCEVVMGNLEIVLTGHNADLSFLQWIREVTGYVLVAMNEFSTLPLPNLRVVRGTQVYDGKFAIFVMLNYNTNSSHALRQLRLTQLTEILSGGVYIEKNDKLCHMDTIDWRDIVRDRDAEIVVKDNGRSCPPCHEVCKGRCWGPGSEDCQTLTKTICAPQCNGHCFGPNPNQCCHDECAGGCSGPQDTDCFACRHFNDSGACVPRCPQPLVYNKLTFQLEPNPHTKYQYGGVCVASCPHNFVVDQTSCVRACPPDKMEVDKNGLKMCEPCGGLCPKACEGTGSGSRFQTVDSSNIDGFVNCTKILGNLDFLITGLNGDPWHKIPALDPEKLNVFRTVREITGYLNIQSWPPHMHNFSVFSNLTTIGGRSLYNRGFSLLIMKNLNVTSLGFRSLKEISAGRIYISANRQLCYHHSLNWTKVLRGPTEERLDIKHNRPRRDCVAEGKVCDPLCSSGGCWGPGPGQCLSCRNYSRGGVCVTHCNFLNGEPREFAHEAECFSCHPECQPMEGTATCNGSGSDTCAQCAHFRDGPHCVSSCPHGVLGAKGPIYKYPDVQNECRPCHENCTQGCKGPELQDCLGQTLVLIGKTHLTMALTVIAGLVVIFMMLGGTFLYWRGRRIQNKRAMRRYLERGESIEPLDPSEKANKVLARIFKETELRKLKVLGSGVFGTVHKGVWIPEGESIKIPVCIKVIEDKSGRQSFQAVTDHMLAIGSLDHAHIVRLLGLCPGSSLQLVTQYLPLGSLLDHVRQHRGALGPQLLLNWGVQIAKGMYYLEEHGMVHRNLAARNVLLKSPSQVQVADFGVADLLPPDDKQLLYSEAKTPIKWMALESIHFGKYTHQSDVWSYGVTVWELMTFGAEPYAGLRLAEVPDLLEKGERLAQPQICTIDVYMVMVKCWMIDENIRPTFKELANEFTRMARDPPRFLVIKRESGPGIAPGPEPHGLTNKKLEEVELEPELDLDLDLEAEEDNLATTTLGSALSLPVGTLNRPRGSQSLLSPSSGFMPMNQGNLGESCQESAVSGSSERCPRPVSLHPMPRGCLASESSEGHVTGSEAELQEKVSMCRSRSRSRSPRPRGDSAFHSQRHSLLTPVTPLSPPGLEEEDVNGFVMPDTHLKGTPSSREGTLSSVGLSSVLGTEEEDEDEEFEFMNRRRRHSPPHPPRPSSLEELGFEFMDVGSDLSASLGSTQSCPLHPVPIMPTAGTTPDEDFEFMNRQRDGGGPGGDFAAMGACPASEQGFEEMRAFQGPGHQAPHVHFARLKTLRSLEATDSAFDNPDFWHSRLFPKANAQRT
T1 sequence (P21860 20-1342 limits assumed): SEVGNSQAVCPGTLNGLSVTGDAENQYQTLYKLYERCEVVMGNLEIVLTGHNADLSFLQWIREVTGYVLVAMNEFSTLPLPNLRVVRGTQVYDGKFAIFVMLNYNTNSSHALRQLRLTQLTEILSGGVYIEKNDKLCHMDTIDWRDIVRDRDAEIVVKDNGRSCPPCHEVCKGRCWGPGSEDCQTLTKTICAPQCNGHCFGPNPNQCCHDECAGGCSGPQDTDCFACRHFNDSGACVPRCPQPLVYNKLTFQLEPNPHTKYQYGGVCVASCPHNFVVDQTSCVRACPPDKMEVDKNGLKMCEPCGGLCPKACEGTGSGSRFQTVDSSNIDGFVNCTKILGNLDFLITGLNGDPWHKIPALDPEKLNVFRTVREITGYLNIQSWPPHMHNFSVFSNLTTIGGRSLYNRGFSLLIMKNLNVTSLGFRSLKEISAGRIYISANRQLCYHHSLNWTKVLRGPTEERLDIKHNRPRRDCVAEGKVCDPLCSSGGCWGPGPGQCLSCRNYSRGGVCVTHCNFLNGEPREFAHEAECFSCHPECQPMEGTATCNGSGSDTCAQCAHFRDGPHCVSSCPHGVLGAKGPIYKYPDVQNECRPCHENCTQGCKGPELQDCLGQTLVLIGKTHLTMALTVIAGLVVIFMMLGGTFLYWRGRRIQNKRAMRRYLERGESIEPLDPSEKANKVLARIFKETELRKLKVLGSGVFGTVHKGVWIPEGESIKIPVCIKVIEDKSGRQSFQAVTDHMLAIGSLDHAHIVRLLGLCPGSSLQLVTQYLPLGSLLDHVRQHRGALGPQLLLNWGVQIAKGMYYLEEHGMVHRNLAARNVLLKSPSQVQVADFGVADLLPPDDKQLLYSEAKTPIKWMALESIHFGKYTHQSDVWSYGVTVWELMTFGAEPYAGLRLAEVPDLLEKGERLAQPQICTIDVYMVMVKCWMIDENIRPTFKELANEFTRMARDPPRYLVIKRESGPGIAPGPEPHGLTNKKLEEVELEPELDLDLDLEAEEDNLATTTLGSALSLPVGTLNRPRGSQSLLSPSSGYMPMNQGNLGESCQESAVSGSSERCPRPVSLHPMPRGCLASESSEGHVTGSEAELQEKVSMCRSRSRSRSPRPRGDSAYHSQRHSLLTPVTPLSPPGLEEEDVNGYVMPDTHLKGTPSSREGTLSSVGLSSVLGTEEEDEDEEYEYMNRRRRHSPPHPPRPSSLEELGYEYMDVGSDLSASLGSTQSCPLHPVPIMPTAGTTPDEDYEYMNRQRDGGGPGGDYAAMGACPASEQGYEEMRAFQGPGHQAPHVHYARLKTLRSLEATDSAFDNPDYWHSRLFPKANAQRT

- binding result [1]: no binding (tested: 1 µg/ml)
- binding result [2]: no binding (tested: 1 µg/ml)
B1: ssFab 4.1.15 (recombinant Fab 4.1.15 conjugated to the 17 mer oligo by sortase) (Fab, V domains shown)
VH: EVQLQESGPELVKPGTSVTISCKTSGYAFSNSWMSWVKQRPGQGLEWIGRIFPGNGDTDYNGNFRAKATLTADKSSSTAFMQLSRLTSVDSAVYFCARSRGLRQGAGFAYWGQGTLVTVSA
VL: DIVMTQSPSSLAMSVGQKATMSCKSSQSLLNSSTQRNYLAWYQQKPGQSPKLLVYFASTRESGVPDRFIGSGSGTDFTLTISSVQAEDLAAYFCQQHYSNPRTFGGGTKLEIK
notes: also called Fab-Oligo 4.1.15

- binding result [3]: no binding (tested: 1 µg/ml per ssFab)
B2: anti-pHER3 dual binder consisting of ssFab 7.2.32, ssFab 4.1.15 and a flexible linker with a 4xC18 spacer (linker 12 of example 2.4) (bispecific antibody, V domains shown)
VH 1: EFEVQLQESGGGLVQPKGSLQLSCAASGFTFNTYAMHWVRQAPGKGLEWVARIRTESSDYATDYADSVKDRFIISRDDSQNMLYLQMNNLKSEDTAIYYCVRSSGFDYWGQGTTLTVSSS
VL 1: DIQMTQSPSLPVSLGDQASISCRSSQSLVHDNGNTYLHWFLQKPGQSPKLLIYKVSNRFSGVPDRFGGSGSGTDFTLKISGVEAEDLGVYFCSQGTHVPTFGGGTKLEIK
VH 2: EFEVQLQESGPELVKPGTSVTISCKTSGYAFSNSWMSWVKQRPGQGLEWIGRIFPGNGDTDYNGNFRAKATLTADKSSSTAFMQLSRLTSVDSAVYFCARSRGLRQGAGFAYWGQGTLVTVSA
VL 2: not shown
notes: Two recombinant Fab-oligo conjugates hybridised on biotinylated linker 12 ((Spacer C18)2-(Biotin-dT)-(Spacer C18)2)
